Measurements published in patent publication US20210032299A1 (Eli Lilly, published 2021).
Starred links: 1 amine or outer side, 2 acyl side, 3 side chain; linkers in the order of their positions; H or OH if unused. Non-standard residues stand in square brackets, D forms with d. Groups on a side chain read outwards from the residue. No end group written: not given here. *: point of attachment. C20 diacid = O=C(O)CCCCCCCCCCCCCCCCCCC(=O)*; γGlu = O=C(O)[C@H](CCC(=O)[*:2])N[*:1]; αMeF = C[C@](N)(Cc1ccccc1)C(=O)O; 4Pal = N[C@@H](Cc1ccncc1)C(=O)O; αMeL = CC(C)C[C@](C)(N)C(=O)O; AEEA = NCCOCCOCC(=O)O; Aib = CC(C)(N)C(=O)O

T1: human glucose-dependent insulinotropic peptide receptor (human, UniProt P48546 22-466)
T1 sequence (looked up): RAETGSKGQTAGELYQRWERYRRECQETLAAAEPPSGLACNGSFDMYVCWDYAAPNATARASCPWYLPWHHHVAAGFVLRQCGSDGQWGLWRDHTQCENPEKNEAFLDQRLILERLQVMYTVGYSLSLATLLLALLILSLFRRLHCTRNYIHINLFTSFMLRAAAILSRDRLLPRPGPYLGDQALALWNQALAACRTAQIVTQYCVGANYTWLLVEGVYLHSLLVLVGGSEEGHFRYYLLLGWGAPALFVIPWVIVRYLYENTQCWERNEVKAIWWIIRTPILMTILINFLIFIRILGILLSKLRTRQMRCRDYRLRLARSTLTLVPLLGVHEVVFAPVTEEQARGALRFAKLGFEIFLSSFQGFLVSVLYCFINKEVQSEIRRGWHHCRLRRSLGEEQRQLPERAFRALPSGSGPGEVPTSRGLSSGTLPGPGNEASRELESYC


Columns and labels:
Test in all cases: cell-based or functional assay
[1] = target: human glucagon receptor (human, UniProt P47871 26-477)
[2] = target: T1, human glucose-dependent insulinotropic …
[3] = target: human GLP-1 receptor (human, UniProt P43220 24-463)

Sequence of human glucagon receptor (P47871 26-477): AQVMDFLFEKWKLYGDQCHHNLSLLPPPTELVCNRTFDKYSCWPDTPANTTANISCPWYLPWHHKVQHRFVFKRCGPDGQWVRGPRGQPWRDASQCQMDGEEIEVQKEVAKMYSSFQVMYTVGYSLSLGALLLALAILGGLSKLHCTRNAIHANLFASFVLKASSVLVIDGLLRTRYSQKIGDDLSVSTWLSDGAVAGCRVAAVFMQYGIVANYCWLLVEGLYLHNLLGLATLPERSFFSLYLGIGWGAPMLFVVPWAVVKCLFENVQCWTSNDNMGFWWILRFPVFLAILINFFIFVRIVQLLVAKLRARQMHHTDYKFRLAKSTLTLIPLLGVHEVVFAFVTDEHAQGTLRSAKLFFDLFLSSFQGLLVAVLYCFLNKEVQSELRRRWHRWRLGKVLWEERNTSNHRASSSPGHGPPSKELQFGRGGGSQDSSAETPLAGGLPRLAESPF

Row | Binder | hGcgR cAMP Rel EC50 [1] | hGIPR cAMP Rel EC50 [2] | hGLP1R cAMP Rel EC50 [3]
1 | Y[Aib]EGTFISDYSI[αMeL]LDKK([AEEA-AEEA-γGlu-C20 diacid])HQ[Aib]D[αMeF]VE[4Pal]LLAGGPSSGAPPPS-NH2 (N-terminus assumed; SMILES CC[C@H](C)[C@H](NC(=O)[C@H](Cc1ccccc1)NC(=O)[C@@H](NC(=O)CNC(=O)[C@H](CCC(=O)O)NC(=O)C(C)(C)NC(=O)[C@@H](N)Cc1ccc(O)cc1)[C@@H](C)O)C(=O)N[C@@H](CO)C(=O)N[C@@H](CC(=O)O)C(=O)N[C@@H](Cc1ccc(O)cc1)C(=O)N[C@@H](CO)C(=O)N[C@H](C(=O)N[C@@](C)(CC(C)C)C(=O)N[C@@H](CC(C)C)C(=O)N[C@@H](CC(=O)O)C(=O)N[C@@H](CCCCN)C(=O)N[C@@H](CCCCNC(=O)COCCOCCNC(=O)COCCOCCNC(=O)CC[C@H](NC(=O)CCCCCCCCCCCCCCCCCCC(=O)O)C(=O)O)C(=O)N[C@@H](Cc1c[nH]cn1)C(=O)N[C@@H](CCC(N)=O)C(=O)NC(C)(C)C(=O)N[C@@H](CC(=O)O)C(=O)N[C@@](C)(Cc1ccccc1)C(=O)N[C@H](C(=O)N[C@@H](CCC(=O)O)C(=O)N[C@@H](Cc1ccncc1)C(=O)N[C@@H](CC(C)C)C(=O)N[C@@H](CC(C)C)C(=O)N[C@@H](C)C(=O)NCC(=O)NCC(=O)N1CCC[C@H]1C(=O)N[C@@H](CO)C(=O)N[C@@H](CO)C(=O)NCC(=O)N[C@@H](C)C(=O)N1CCC[C@H]1C(=O)N1CCC[C@H]1C(=O)N1CCC[C@H]1C(=O)N[C@@H](CO)C(N)=O)C(C)C)[C@@H](C)CC) [Example 56] | > 5000 nM | 0.0169 nM | > 5000 nM
2 | YXEGTXISDYSIXLDKKHQXDFVEXLLAGGPSSGAPPPS (Aib2; Iva6; αMeL13; K17((2-[2-(2-Amino-ethoxy)-ethoxy]-acetyl)2-(γ-Glu)-CO-(CH2)18-CO2H); Aib20; 4-Pal25; C-terminal amide) [Example 55] | > 5000 nM | 0.017 nM | > 5000 nM
3 | Y[Aib]EGTFISDYSI[αMeL]LDKK([AEEA-AEEA-γGlu-C20 diacid])HQ[Aib]EFVE[4Pal]LLAGGPSSGAPPPS-NH2 (N-terminus assumed; SMILES CC[C@H](C)[C@H](NC(=O)[C@H](Cc1ccccc1)NC(=O)[C@@H](NC(=O)CNC(=O)[C@H](CCC(=O)O)NC(=O)C(C)(C)NC(=O)[C@@H](N)Cc1ccc(O)cc1)[C@@H](C)O)C(=O)N[C@@H](CO)C(=O)N[C@@H](CC(=O)O)C(=O)N[C@@H](Cc1ccc(O)cc1)C(=O)N[C@@H](CO)C(=O)N[C@H](C(=O)N[C@@](C)(CC(C)C)C(=O)N[C@@H](CC(C)C)C(=O)N[C@@H](CC(=O)O)C(=O)N[C@@H](CCCCN)C(=O)N[C@@H](CCCCNC(=O)COCCOCCNC(=O)COCCOCCNC(=O)CC[C@H](NC(=O)CCCCCCCCCCCCCCCCCCC(=O)O)C(=O)O)C(=O)N[C@@H](Cc1c[nH]cn1)C(=O)N[C@@H](CCC(N)=O)C(=O)NC(C)(C)C(=O)N[C@@H](CCC(=O)O)C(=O)N[C@@H](Cc1ccccc1)C(=O)N[C@H](C(=O)N[C@@H](CCC(=O)O)C(=O)N[C@@H](Cc1ccncc1)C(=O)N[C@@H](CC(C)C)C(=O)N[C@@H](CC(C)C)C(=O)N[C@@H](C)C(=O)NCC(=O)NCC(=O)N1CCC[C@H]1C(=O)N[C@@H](CO)C(=O)N[C@@H](CO)C(=O)NCC(=O)N[C@@H](C)C(=O)N1CCC[C@H]1C(=O)N1CCC[C@H]1C(=O)N1CCC[C@H]1C(=O)N[C@@H](CO)C(N)=O)C(C)C)[C@@H](C)CC) [Example 52] | 337 nM | 0.0194 nM | > 5000 nM
4 | Y[Aib]EGTFISDYSI[αMeL]LDKK([AEEA-AEEA-γGlu-C20 diacid])HQ[Aib]DFVEWLLAGGPSSGAPPPS-NH2 (N-terminus assumed; SMILES CC[C@H](C)[C@H](NC(=O)[C@H](Cc1ccccc1)NC(=O)[C@@H](NC(=O)CNC(=O)[C@H](CCC(=O)O)NC(=O)C(C)(C)NC(=O)[C@@H](N)Cc1ccc(O)cc1)[C@@H](C)O)C(=O)N[C@@H](CO)C(=O)N[C@@H](CC(=O)O)C(=O)N[C@@H](Cc1ccc(O)cc1)C(=O)N[C@@H](CO)C(=O)N[C@H](C(=O)N[C@@](C)(CC(C)C)C(=O)N[C@@H](CC(C)C)C(=O)N[C@@H](CC(=O)O)C(=O)N[C@@H](CCCCN)C(=O)N[C@@H](CCCCNC(=O)COCCOCCNC(=O)COCCOCCNC(=O)CC[C@H](NC(=O)CCCCCCCCCCCCCCCCCCC(=O)O)C(=O)O)C(=O)N[C@@H](Cc1c[nH]cn1)C(=O)N[C@@H](CCC(N)=O)C(=O)NC(C)(C)C(=O)N[C@@H](CC(=O)O)C(=O)N[C@@H](Cc1ccccc1)C(=O)N[C@H](C(=O)N[C@@H](CCC(=O)O)C(=O)N[C@@H](Cc1c[nH]c2ccccc12)C(=O)N[C@@H](CC(C)C)C(=O)N[C@@H](CC(C)C)C(=O)N[C@@H](C)C(=O)NCC(=O)NCC(=O)N1CCC[C@H]1C(=O)N[C@@H](CO)C(=O)N[C@@H](CO)C(=O)NCC(=O)N[C@@H](C)C(=O)N1CCC[C@H]1C(=O)N1CCC[C@H]1C(=O)N1CCC[C@H]1C(=O)N[C@@H](CO)C(N)=O)C(C)C)[C@@H](C)CC) [Example 54] | > 5000 nM | 0.054 nM | > 5000 nM
5 | Y[Aib]EGTFISDYSI[αMeL]LDKK([AEEA-AEEA-γGlu-C20 diacid])HQ[Aib]DFVEYLLAGGPSSGAPPPS-NH2 (N-terminus assumed; SMILES CC[C@H](C)[C@H](NC(=O)[C@H](Cc1ccccc1)NC(=O)[C@@H](NC(=O)CNC(=O)[C@H](CCC(=O)O)NC(=O)C(C)(C)NC(=O)[C@@H](N)Cc1ccc(O)cc1)[C@@H](C)O)C(=O)N[C@@H](CO)C(=O)N[C@@H](CC(=O)O)C(=O)N[C@@H](Cc1ccc(O)cc1)C(=O)N[C@@H](CO)C(=O)N[C@H](C(=O)N[C@@](C)(CC(C)C)C(=O)N[C@@H](CC(C)C)C(=O)N[C@@H](CC(=O)O)C(=O)N[C@@H](CCCCN)C(=O)N[C@@H](CCCCNC(=O)COCCOCCNC(=O)COCCOCCNC(=O)CC[C@H](NC(=O)CCCCCCCCCCCCCCCCCCC(=O)O)C(=O)O)C(=O)N[C@@H](Cc1c[nH]cn1)C(=O)N[C@@H](CCC(N)=O)C(=O)NC(C)(C)C(=O)N[C@@H](CC(=O)O)C(=O)N[C@@H](Cc1ccccc1)C(=O)N[C@H](C(=O)N[C@@H](CCC(=O)O)C(=O)N[C@@H](Cc1ccc(O)cc1)C(=O)N[C@@H](CC(C)C)C(=O)N[C@@H](CC(C)C)C(=O)N[C@@H](C)C(=O)NCC(=O)NCC(=O)N1CCC[C@H]1C(=O)N[C@@H](CO)C(=O)N[C@@H](CO)C(=O)NCC(=O)N[C@@H](C)C(=O)N1CCC[C@H]1C(=O)N1CCC[C@H]1C(=O)N1CCC[C@H]1C(=O)N[C@@H](CO)C(N)=O)C(C)C)[C@@H](C)CC) [Example 53] | 344 nM | 0.0194 nM | > 5000 nM
6 | Y[Aib]EGTFISDYSI[αMeL]LDKK([AEEA-AEEA-γGlu-C20 diacid])HQ[Aib]EFVE[4Pal]LLAQGPSSGAPPPS-NH2 (N-terminus assumed; SMILES CC[C@H](C)[C@H](NC(=O)[C@H](Cc1ccccc1)NC(=O)[C@@H](NC(=O)CNC(=O)[C@H](CCC(=O)O)NC(=O)C(C)(C)NC(=O)[C@@H](N)Cc1ccc(O)cc1)[C@@H](C)O)C(=O)N[C@@H](CO)C(=O)N[C@@H](CC(=O)O)C(=O)N[C@@H](Cc1ccc(O)cc1)C(=O)N[C@@H](CO)C(=O)N[C@H](C(=O)N[C@@](C)(CC(C)C)C(=O)N[C@@H](CC(C)C)C(=O)N[C@@H](CC(=O)O)C(=O)N[C@@H](CCCCN)C(=O)N[C@@H](CCCCNC(=O)COCCOCCNC(=O)COCCOCCNC(=O)CC[C@H](NC(=O)CCCCCCCCCCCCCCCCCCC(=O)O)C(=O)O)C(=O)N[C@@H](Cc1c[nH]cn1)C(=O)N[C@@H](CCC(N)=O)C(=O)NC(C)(C)C(=O)N[C@@H](CCC(=O)O)C(=O)N[C@@H](Cc1ccccc1)C(=O)N[C@H](C(=O)N[C@@H](CCC(=O)O)C(=O)N[C@@H](Cc1ccncc1)C(=O)N[C@@H](CC(C)C)C(=O)N[C@@H](CC(C)C)C(=O)N[C@@H](C)C(=O)N[C@@H](CCC(N)=O)C(=O)NCC(=O)N1CCC[C@H]1C(=O)N[C@@H](CO)C(=O)N[C@@H](CO)C(=O)NCC(=O)N[C@@H](C)C(=O)N1CCC[C@H]1C(=O)N1CCC[C@H]1C(=O)N1CCC[C@H]1C(=O)N[C@@H](CO)C(N)=O)C(C)C)[C@@H](C)CC) [Example 57] | 886 nM | 0.0177 nM | > 5000 nM
